Measured values: publication PMC4427203, “Tah1 helix-swap dimerization prevents mixed Hsp90 co-chaperone complexes” (Acta Crystallographica Section D: Biological Crystallography, 2015)
Each block holds one binder with its values, some of them ahead of it.

Legend:
[1] = biological target: T1, Tah1 (full-length yeast Tah1) (S. cerevisiae, UniProt P25638 1-111); test: crystal structure; Tah1 at 10 mg/ml with 5 mM … peptide; sitting drop, 100 mM MES pH 6.0, 200 mM ammonium chloride, 20% PEG 6000, 4°C; refined to 2 Å; conditions: both partners purified
T1 construct: Tah1, yeast (S. cerevisiae), synthetic full-length gene expressed from pRSET-A; In the crystal two Tah1 chains form a helix-swapped dimer; in solution Tah1 is mainly monomeric; also called TPR domain of Tah1
T1 sequence (looked up): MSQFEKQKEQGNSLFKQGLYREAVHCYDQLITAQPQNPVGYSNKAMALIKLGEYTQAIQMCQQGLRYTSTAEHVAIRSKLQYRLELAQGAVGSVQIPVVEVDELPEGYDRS

Flag-Tah1 = biological target: T2, Flag-Tah1 (S. cerevisiae, UniProt P25638 1-111); test: pull-down; 70 µM Flag-Tah1 and Hsp90 600-709 with increasing AIP 172-315 or full-length AIP (5-10 molar excess); 20 mM HEPES pH 7.5, 150 mM NaCl, 10% glycerol, 0.5% IGEPAL, 2 mM EDTA; captured on anti-Flag M2 magnetic beads; eluate on SDS-PAGE; conditions: both partners purified
T2 construct: Tah1, yeast
T2 sequence (looked up): T1 sequence (looked up)

binding result [1]: binds
B1: Hsp90 peptide EDASRMEEVD (peptide)
peptide: EDASRMEEVD
notes: C-terminal peptide of Hsp90 with the conserved MEEVD motif; also called MEEVD peptide of Hsp90; SRMEEVD peptide

binding result (Flag-Tah1): binds
B2: Hsp90 600-709 (domain or fragment)
chain: not shown
notes: Hsp90 C-terminal fragment, residues 600-709; Used at 70 µM in the pull-down; also called cHsp90
